Results as given in the Human Domainome abundance scans (Beltran et al. 2025).
± gives the uncertainty stated by the source.

B1: PDZ and LIM domain protein 2, residues 284 to 339; numbered along this chain, Q96JY6 (parent)
chain: HTCEKCSTSIANQAVRIQEGRYRHPGCYTCADCGLNLKMRGHFWVGDELYCEKHAR

Variants of: B1
Experiment: abundance fitness (aPCA) (normalised: wild type 0, dead -1); higher = more abundant; growth selection in yeast, the domain comes from the species named
Conditions: Homo sapiens

Abundance fitness of substitutions, site by site:
L49: W -0.39 ± 0.11; I 0.117 ± 0.18; C -0.108 ± 0.066; A -0.159 ± 0.068; V -0.075 ± 0.086; R -0.885 ± 0.13; M -0.205 ± 0.13; Y -0.269 ± 0.25; F -0.343 ± 0.19; H -0.343 ± 0.062; Q -0.174 ± 0.12; N -0.942 ± 0.47; G -0.286 ± 0.068; P -0.154 ± 0.12; E -0.377 ± 0.081; T -0.207 ± 0.097; S -0.341 ± 0.081; K -0.733 ± 0.14
F43: M -0.208 ± 0.13; S -0.056 ± 0.084; T -0.04 ± 0.085; R -0.138 ± 0.071; A -0.189 ± 0.088; Y -0.145 ± 0.11; W 0.099 ± 0.074; E -0.057 ± 0.1; I -0.084 ± 0.17; N 0.071 ± 0.19; L -0.048 ± 0.066; D 0.087 ± 0.066; C 0.101 ± 0.13; G -0.048 ± 0.049; Q -0.26 ± 0.13; K -0.381 ± 0.12; P -0.058 ± 0.084; V -0.423 ± 0.093
C33: P -0.757 ± 0.16; G -0.682 ± 0.061; N -0.741 ± 0.083; D -0.695 ± 0.19; S -0.828 ± 0.11; E -1.05 ± 0.18; T -0.747 ± 0.1; F -0.876 ± 0.14; L -0.549 ± 0.084; V -0.885 ± 0.15; H -0.709 ± 0.12; M -0.947 ± 0.079; W -0.765 ± 0.17; R -0.964 ± 0.086; A -0.94 ± 0.072; Y -0.823 ± 0.15
W44: T -0.232 ± 0.14; Y 0.128 ± 0.19; I 0.352 ± 0.14; P 0.205 ± 0.064; F 0.025 ± 0.12; S 0.027 ± 0.098; H 0.15 ± 0.084; R -0.045 ± 0.073; K -0.208 ± 0.14; Q 0.096 ± 0.13; N -0.24 ± 0.25; E 0.139 ± 0.092; A 0.163 ± 0.062; M -0.034 ± 0.13; L 0.096 ± 0.057; C 0.005 ± 0.15; V 0.044 ± 0.09
C51: Y -0.94 ± 0.3; P -0.614 ± 0.14; A -0.669 ± 0.16; R -0.969 ± 0.095; S -0.609 ± 0.12; Q -0.696 ± 0.35; T -1.16 ± 0.27; E -0.219 ± 0.16; I -0.523 ± 0.37; D -0.593 ± 0.27; K -0.839 ± 0.26; H -0.827 ± 0.18; W -1.05 ± 0.15; V -1.17 ± 0.15
M39: Q 0.048 ± 0.12; F -0.186 ± 0.069; S 0.057 ± 0.064; Y 0.002 ± 0.067; A 0.226 ± 0.066; T 0.173 ± 0.086; P 0.422 ± 0.11; E 0.286 ± 0.063; N 0.095 ± 0.13; I -0.347 ± 0.19; K 0.071 ± 0.1; W -0.523 ± 0.068; H -0.116 ± 0.18; C -0.186 ± 0.17; L -0.123 ± 0.075; G 0.223 ± 0.055
G34: T -0.177 ± 0.1; K 0.073 ± 0.089; W -0.799 ± 0.14; E -0.146 ± 0.16; C -0.413 ± 0.1; A -0.09 ± 0.09; Y -0.331 ± 0.13; S 0.024 ± 0.076; L -0.165 ± 0.064; R -0.064 ± 0.084; N 0.108 ± 0.13; P -0.356 ± 0.073; I -0.352 ± 0.2; H 0.2 ± 0.17; Q -0.03 ± 0.12; F -0.196 ± 0.13
E48: R -0.079 ± 0.08; K -0.034 ± 0.12; A -0.091 ± 0.061; P -0.788 ± 0.1; Y -0.235 ± 0.075; V -0.011 ± 0.095; Q -0.292 ± 0.14; N 0.203 ± 0.14; H -0.084 ± 0.32; I -0.174 ± 0.11; M -0.18 ± 0.12; C -0.289 ± 0.23; S -0.074 ± 0.11; T -0.286 ± 0.12; L -0.082 ± 0.09; G 0.079 ± 0.079; D -0.065 ± 0.19
L37: Q -0.599 ± 0.1; A -0.601 ± 0.071; F -0.262 ± 0.22; G -0.288 ± 0.075; R -0.565 ± 0.076; Y -0.38 ± 0.17; S -0.614 ± 0.12; D -0.249 ± 0.14; P -0.442 ± 0.14; K -0.502 ± 0.14; E -0.407 ± 0.068; V -0.109 ± 0.064; T -0.395 ± 0.12; M -0.178 ± 0.1; C -0.3 ± 0.13; W -0.731 ± 0.17; H -0.807 ± 0.17; I -0.322 ± 0.23
Y50: Q -0.256 ± 0.069; V 0.072 ± 0.086; E -0.673 ± 0.18; K 0.04 ± 0.078; G -0.501 ± 0.069; M 0.077 ± 0.093; A -0.188 ± 0.086; H -0.083 ± 0.2; I -0.194 ± 0.18; F -0.001 ± 0.15; W -0.161 ± 0.076; R -0.008 ± 0.069; L -0.039 ± 0.084; T -0.289 ± 0.098; N -0.239 ± 0.17; D -0.079 ± 0.29
D47: G -0.11 ± 0.075; I -0.135 ± 0.081; F -0.339 ± 0.21; H -0.136 ± 0.098; S 0.004 ± 0.077; L -0.026 ± 0.073; W -0.1 ± 0.059; C -0.002 ± 0.11; V -0.229 ± 0.089; R 0.008 ± 0.061; E -0.12 ± 0.14; N -0.11 ± 0.14; Y -0.224 ± 0.098; M -0.086 ± 0.11; K 0.052 ± 0.12; T -0.047 ± 0.068
N36: L -0.145 ± 0.069; I -0.127 ± 0.16; D -0.257 ± 0.16; G -0.093 ± 0.067; S -0.038 ± 0.077; V -0.113 ± 0.059; M -0.07 ± 0.084; A -0.104 ± 0.06; K -0.478 ± 0.12; P 0.108 ± 0.13; T -0.125 ± 0.061; H -0.275 ± 0.18; C -0.116 ± 0.083; F -0.189 ± 0.093; E 0.099 ± 0.081
K38: V -0.447 ± 0.098; A 0.189 ± 0.1; R -0.366 ± 0.076; F -0.495 ± 0.17; H -0.197 ± 0.16; G 0.103 ± 0.056; L -0.702 ± 0.1; N -0.124 ± 0.15; S 0.056 ± 0.076; M -0.08 ± 0.098; Q -0.263 ± 0.16; E 0.311 ± 0.071; I -0.703 ± 0.22; C -0.24 ± 0.083; T -0.115 ± 0.12; W -0.445 ± 0.13; Y -0.037 ± 0.14
G46: T -0.202 ± 0.095; C -0.202 ± 0.16; E 0.047 ± 0.064; W -0.429 ± 0.17; N 0.112 ± 0.13; L -0.134 ± 0.068; K 0.019 ± 0.12; I -0.223 ± 0.18; Y 0.044 ± 0.17; R -0.031 ± 0.067; Q -0.206 ± 0.11; P -0.324 ± 0.093; V -0.226 ± 0.081; A -0.206 ± 0.092; M -0.276 ± 0.14; S -0.066 ± 0.07; H -0.238 ± 0.19; F -0.624 ± 0.24
E52: A -0.183 ± 0.059; F -0.075 ± 0.14; D 0.029 ± 0.062; I -0.468 ± 0.14; K -0.226 ± 0.095; C -0.246 ± 0.1
G41: C -0.408 ± 0.095; H -0.682 ± 0.36; K -0.169 ± 0.12; M -0.386 ± 0.09; E -0.191 ± 0.088; Q -0.076 ± 0.086; V -0.434 ± 0.088; W -0.797 ± 0.072; S -0.436 ± 0.12; A -0.139 ± 0.058; N -0.146 ± 0.22; P -0.025 ± 0.12; Y -0.395 ± 0.2; I -0.673 ± 0.11; D -0.088 ± 0.15; F -0.259 ± 0.18; L -0.437 ± 0.061; T -0.083 ± 0.095; R -0.216 ± 0.067
D32: Y -0.106 ± 0.087; T 0.057 ± 0.061; V -0.245 ± 0.093; S -0.193 ± 0.072; R 0.124 ± 0.077; Q -0.336 ± 0.096; W -0.235 ± 0.06
L35: M 0.102 ± 0.12; I 0.05 ± 0.082; R -0.187 ± 0.074; C -0.214 ± 0.14; A 0.102 ± 0.072; V 0.053 ± 0.064; P -0.518 ± 0.14; F 0.178 ± 0.13; G 0.053 ± 0.081; W -0.054 ± 0.088; H -0.015 ± 0.089; N 0.062 ± 0.14; S 0.005 ± 0.07; T 0.167 ± 0.11; E 0.086 ± 0.086; D 0.202 ± 0.087; Y 0.01 ± 0.12
R40: F -0.156 ± 0.098; D 0.027 ± 0.16; T -0.009 ± 0.1; Y -0.163 ± 0.12; C 0.221 ± 0.1; M 0.063 ± 0.059; E 0.066 ± 0.071; N 0.21 ± 0.13; H 0.274 ± 0.11; I -0.293 ± 0.12; K 0.188 ± 0.079; A 0.041 ± 0.12; S 0.079 ± 0.073; P 0.14 ± 0.13; Q -0.091 ± 0.11; V 0.092 ± 0.063; L 0.129 ± 0.074; G 0.219 ± 0.061
H42: K -0.113 ± 0.064; V -0.064 ± 0.081; Q -0.032 ± 0.11; Y -0.393 ± 0.12; P -0.053 ± 0.15; E 0.16 ± 0.08; A -0.147 ± 0.076; W -0.233 ± 0.064; G -0.301 ± 0.057; D 0.078 ± 0.076; T 0.008 ± 0.14; M -0.162 ± 0.16; R -0.19 ± 0.064; I -0.282 ± 0.24; S 0.022 ± 0.065; L 0.178 ± 0.084; C -0.005 ± 0.14
V45: G 0.107 ± 0.061; A 0.022 ± 0.087; K 0.313 ± 0.1; H 0.221 ± 0.11; Y 0.066 ± 0.062; T -0.585 ± 0.12; E 0.041 ± 0.083; Q -0.092 ± 0.12; R 0.108 ± 0.051; W -0.116 ± 0.094; N -0.155 ± 0.089; I 0.29 ± 0.12; M -0.057 ± 0.07; L -0.063 ± 0.073; C -0.242 ± 0.16; D -0.434 ± 0.12; S -0.11 ± 0.072; P -0.361 ± 0.12
